From the supplement of paper PMC9112550, “Optimization of the antimicrobial peptide Bac7 by deep mutational scanning” (BMC Biology, 2022)

System: Escherichia coli TOP10
Test: shrunken log2 fold change of peptide-encoding DNA abundance (4.5 h post-induction vs induction); higher = less antimicrobial activity (less host growth inhibition)
Conditions: time post-induction: 4.5 h; library: site-saturation at positions 5, 18, 19, 20
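Further: peptides expressed intracellularly from a pBAD plasmid library in pooled LB shake-flask culture, induced with 0.3% L-arabinose, DNA abundance read by NGS, three biological replicates, DESeq2 with apeglm shrinkage.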

Sequence	shrunken log2 fold change
RRIRARPPRLPRPRPRPVTDPRP	-0.0398
RRIRARPPRLPRPRPRPVVEPRP	0.322
RRIRARPPRLPRPRPRPVWYPRP	-0.395
RRIRARPPRLPRPRPRPVYAPRP	0.205
RRIRARPPRLPRPRPRPVYLPRP	-0.622
RRIRARPPRLPRPRPRPWAEPRP	0.264
RRIRARPPRLPRPRPRPWAIPRP	0.253
RRIRARPPRLPRPRPRPWCNPRP	-0.536
RRIRARPPRLPRPRPRPWDGPRP	0.72
RRIRARPPRLPRPRPRPWDPPRP	0.496
RRIRARPPRLPRPRPRPWGKPRP	0.0748
RRIRARPPRLPRPRPRPWGVPRP	0.329
RRIRARPPRLPRPRPRPWHQPRP	0.0524
RRIRARPPRLPRPRPRPWKRPRP	0.125
RRIRARPPRLPRPRPRPWKWPRP	-0.163
RRIRARPPRLPRPRPRPWLNPRP	-0.175
RRIRARPPRLPRPRPRPWMHPRP	0.026
RRIRARPPRLPRPRPRPWPAPRP	0.17
RRIRARPPRLPRPRPRPWPVPRP	0.558
RRIRARPPRLPRPRPRPWPYPRP	-0.144

Sequence	shrunken log2 fold change
RRIRARPPRLPRPRPRPWRIPRP	-0.0489
RRIRARPPRLPRPRPRPWSWPRP	0.109
RRIRARPPRLPRPRPRPWSYPRP	-0.0574
RRIRARPPRLPRPRPRPWVCPRP	-0.136
RRIRARPPRLPRPRPRPWWIPRP	-0.0901
RRIRARPPRLPRPRPRPWWTPRP	0.239
RRIRARPPRLPRPRPRPWYAPRP	-0.307
RRIRARPPRLPRPRPRPYAGPRP	-0.534
RRIRARPPRLPRPRPRPYCLPRP	-0.729
RRIRARPPRLPRPRPRPYDHPRP	-0.57
RRIRARPPRLPRPRPRPYDSPRP	-0.0577
RRIRARPPRLPRPRPRPYGPPRP	-0.264
RRIRARPPRLPRPRPRPYICPRP	-0.326
RRIRARPPRLPRPRPRPYKTPRP	-0.0275
RRIRARPPRLPRPRPRPYMQPRP	-0.53
RRIRARPPRLPRPRPRPYMTPRP	-0.256
RRIRARPPRLPRPRPRPYNIPRP	-0.159
RRIRARPPRLPRPRPRPYNVPRP	-0.284
RRIRARPPRLPRPRPRPYPCPRP	-0.417
RRIRARPPRLPRPRPRPYQMPRP	-0.396

Sequence	shrunken log2 fold change
RRIRARPPRLPRPRPRPYQVPRP	-0.327
RRIRARPPRLPRPRPRPYRHPRP	-0.157
RRIRARPPRLPRPRPRPYSTPRP	-0.563
RRIRARPPRLPRPRPRPYTEPRP	-0.583
RRIRARPPRLPRPRPRPYYCPRP	-0.331
RRIRCRPPRLPRPRPRPAARPRP	0.392
RRIRCRPPRLPRPRPRPADKPRP	-0.0716
RRIRCRPPRLPRPRPRPAENPRP	0.000461
RRIRCRPPRLPRPRPRPAERPRP	-0.109
RRIRCRPPRLPRPRPRPAFQPRP	0.0486
RRIRCRPPRLPRPRPRPAKQPRP	-0.0271
RRIRCRPPRLPRPRPRPALKPRP	0.0946
RRIRCRPPRLPRPRPRPAMAPRP	0.199
RRIRCRPPRLPRPRPRPAMSPRP	0.0552
RRIRCRPPRLPRPRPRPANIPRP	-0.443
RRIRCRPPRLPRPRPRPAPWPRP	0.438
RRIRCRPPRLPRPRPRPAQCPRP	-0.113
RRIRCRPPRLPRPRPRPATEPRP	0.309
RRIRCRPPRLPRPRPRPATPPRP	1.34
RRIRCRPPRLPRPRPRPAWYPRP	-0.0055
